The source of these data is patent publication US9012420B2, “Aptamer for chymase, and use thereof” (Ribomic Inc., priority 2009, dated 2015).

Numbering of substitutions follows the chain as printed. Oligonucleotides are written 5' to 3', each unit as a sugar letter and its base; * is a phosphorothioate linkage, no mark a phosphodiester; rarer units and linkages stand in square brackets, end groups in braces. Plain capitals give the bases only. r = 2'-OH (RNA); f = 2'-fluoro

The target in series [1] is T1, chymase (recombinant, manufactured by SIGMA) (Homo sapiens, UniProt P23946).
T1 construct: purchased SIGMA; host or cells: yeast
T1 sequence (P23946 22-247): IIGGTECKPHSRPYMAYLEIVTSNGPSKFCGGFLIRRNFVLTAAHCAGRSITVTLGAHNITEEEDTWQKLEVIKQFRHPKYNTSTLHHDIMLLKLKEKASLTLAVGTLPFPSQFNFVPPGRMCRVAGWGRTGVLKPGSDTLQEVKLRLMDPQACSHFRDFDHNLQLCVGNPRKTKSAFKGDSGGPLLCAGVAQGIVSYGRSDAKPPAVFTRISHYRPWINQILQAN
Nature of the series: Surface plasmon resonance (Biacore T100), chymase immobilized on CM5 chip, nucleic acid injected as analyte. It counts as binding. Also on record: key to Binding activity as determined using Biacore: ++: a sequence that binds to chymase significantly more strongly than the negative control 40N; +: a sequence that binds to chymase equivalently compared with the negative control 40N; key to binding activity using Biacore: ++: significant binding to chymase than SEQ ID NO: 58 which is a negative control; +: similar binding level as SEQ ID NO: 58 which is a negative control. Conditions: for Binding activity as determined using Biacore: Table 4, about 4000 RU chymase immobilized, nucleic acid 0.3 μM, solution C, compared with 40N; for binding activity using Biacore: Table 5, same manner as Example 4, compared with SEQ ID NO: 58. Here is the method: In another method, chymase is first immobilized onto a sensor chip, the amount immobilized being about 4000 RU. 20 μL of an aptamer solution for analyte, prepared at 0.01 μg/μL, is injected, and the binding of the aptamer to chymase is detected. An RNA containing a random nucleotide sequence of 30 or 40 nucleotides is used as a negative control.
Whether these nucleic acids bind to chymase was determined by the surface plasmon resonance method. Measurements were taken using Biacore T100 (manufactured by GE Healthcare) as described below. About 4000 RU of chymase (recombinant, manufactured by SIGMA) was immobilized on the sensor chip surface of a CM5 chip, using an amine coupling kit. 20 μL of each nucleic acid, prepared at 0.3 μM, as an analyte was injected at a flow rate of 20 μL/min. Solution C was used as a running buffer. The method of evaluation used was the same as Example 1.
All nucleic acids of SEQ ID NO: 58-68 were prepared by chemical synthesis. Whether these nucleic acids are bound to chymase was assessed by surface plasmon resonance method in the same manner as in Example 4. The inhibitory activity on chymase was measured in the same manner as in Example 3.
All nucleic acids of SEQ ID NOs: 73-79, 56(8), 80, 56(10), 81, 56(13)-56(14), 83-87 were prepared by chemical synthesis. Whether these nucleic acids are bound to chymase was assessed by surface plasmon resonance method in the same manner as in Example 4.
All nucleic acids of SEQ ID NO: 88-120, 121, 69, 122, 123, 70-72, 124-131 were prepared by chemical synthesis. Whether these nucleic acids are bound to chymase was assessed by surface plasmon resonance method in the same manner as in Example 4.
For orientation: Surface plasmon resonance follows binding to a sensor surface in real time, without labels.

The target of series [2] is T1, chymase (recombinant, manufactured by SIGMA). In words: Chymase inhibitory activity using synthetic substrate Suc-Ala-Ala-Pro-Phe-MCA. It counts as biochemical. Conditions: same manner as Example 3. In short, it runs like this:
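Human recombinant chymase (16.7 nM or 1.67 nM final) preincubated 5 min at 37° C., then added to nucleic acid (0.0027–2 μM serial dilutions) and 100 μM substrate in solution C. AMC fluorescence (ex 380/em 460 nm) followed 5 or 30 min at 37° C.; slope gives initial velocity, inhibition versus no-inhibitor control yields IC50.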

The target of series [3] is T2, chymase (recombinant) (UniProt P23946 P23946:22-247).
T2 sequence: T1 sequence (P23946 22-247)
Nature of the series: inhibition; SPR ++. The note with it: tags: SIGMA, expressed in yeast. As to the method: (§1) Here, Suc is a protecting succinyl group, and MCA is a 4-methylcoumaryl-7-amide group; upon cleavage of the C-terminal side of phenylalanine, AMC (7-amino-4-methyl-coumarine) is released. By detecting the fluorescence of this AMC, the enzyme activity of chymase can be determined. The assay was performed using a 96-well plate (F16 Black Maxisorp Fluoronunc, manufactured by Nunc), with a reaction mixture volume of 100 μL, in solution C as a buffer solution. First, each nucleic acid was serially diluted to 0.0027-2 μM concentrations in solution C to obtain 50 μL solutions. After 10 μL of the 1 mM substrate prepared in solution C was added thereto, the plate was set to the microplate reader SpectraMax190 (manufactured by Molecular Devices Corporation), and incubated at 37° C. for 5 minutes. Separately, 0.05 μg (or 0.005 μg) of chymase (recombinant, manufactured by SIGMA) was diluted in solution C to obtain a 40 μL chymase solution, and incubated at 37° C. for 5 minutes. The chymase solution was added to the mixture of the nucleic acid and substrate to initiate an enzyme reaction. The final chymase concentration in the reaction mixture was 16.7 nM (or 1.67 nM), the final substrate concentration being 100 μM. The plate containing the reaction mixture was set to the microplate reader SpectraMax190 (manufactured by Molecular Devices Corporation), and examined for time-dependent changes in the fluorescence intensity at 37° C. for 5 minutes (or 30 minutes) (excitation wavelength 380 nm, detection wavelength 460 nm). A linear approximation of the increase in the fluorescence of the AMC released from the substrate by chymase activity was generated, and its slope was taken as the initial velocity […]. For control, samples were treated and analyzed in the same manner in two cases: use of a 30N or 40N (a nucleotide of 30 or 40 consecutive bases represented by N; N is A, G, C or T) nucleic acid pool (negative control), and use of chymostatin, a known chymotrypsin-like serine protease inhibitor (positive control). Taking the initial reaction velocity without the nucleic acid and inhibitor (V_0) as a 100% enzyme activity, the inhibitory rate of each test substance was calculated using the following equation: […]

Series [4] deals with T2, chymase (recombinant). Nature of the series: inhibition; SPR ++. Conditions: tags: SIGMA, expressed in yeast. As to the method: as §1
The inhibitory activity on chymase was measured in the same manner as in Example 3.
This is another data set of the same source.

Setting [5] is: Table 4, mean value for 2 to 3 measurements.
Where [6] appears, read: Table 5, mean value of two measurements.

For the molecule “57 (GCAUUUGAGAUAGAUUUAAACAAACGC; 2'-fluoro at CU, RNA at AG, backbone not given here) [compound 57]”, the “Binding activity as determined using Biacore” value in series [1] is given as “++”. In addition, the concentration for half-maximal inhibition (IC50) in series [2] (setting [5]) stood at 99 ± 13 nM.

Consider “60 (GGGUUAGAUAGAGCUAAAAACCC; 2'-fluoro at CU, RNA at AG, backbone not given here) [compound 60]”, for which the “binding activity using Biacore” value in series [1] is “++”. The IC50 in series [2] (setting [6]) was determined as 26 ± 6 nM. For the molecule “59 (GGGUUAGAUAGAGAUAAAAACCC; 2'-fluoro at CU, RNA at AG, backbone not given here) [compound 59]”, in series [1], the “binding activity using Biacore” value is listed as “++”. In addition, the IC50 in series [2] (setting [6]) turned out to be 38 ± 9 nM. The matching figures for “61 (GGGUUAGAUAGAUUUAAAAACCC; 2'-fluoro at CU, RNA at AG, backbone not given here) [compound 61]”: “++” and 23 ± 6 nM. The matching figures for “64 (rGfUfCrAfCrArGrAfUrArGrArGfUfUrArArArGfUrGrAfC) [compound 64]”: “++” and 20 ± 5 nM. Take “49 (GGUUCUACAGAUAGAGAUAAAGUAGAACC; 2'-fluoro at CU, RNA at AG, backbone not given here) [compound 49]”: the “Binding activity as determined using Biacore” value in series [1] is reported as “++”. Moreover, the IC50 in series [2] (setting [5]) came to 117 ± 66 nM.

For the molecule “63 (rGfCfUrAfCrArGrAfUrArGrArGfUfUrArArArGfUrArGfC) [compound 63]”, in series [1], the “binding activity using Biacore” value is listed as “++”. In series [2] (setting [6]), the IC50 stood at 23 ± 3 nM. As to “66 (GGGUUAGAUCGAGUUAAAAACCC; listed as RNA, chemistry not fully specified) [compound 66]”, in series [1], the “binding activity using Biacore” value was “+”. The IC50 in series [2] (setting [6]) was greater than 1000 nM.

B1: SEQ 18 (ssRNA)
RNA: GGGACGGUAGGAAUUCGAACGACAAAUUAUAGAACUUCGUUUGACAUUCCACACCACAUAGAAGAGCGGCCGC
modifications: 2'-F pyrimidines
Take B1: the IC50 with chymase (recombinant) [3] turned out to be 58 nM.

B2: 56(18) (ssRNA)
RNA: GGGUUAGAUAGAGUUAAAAACCC
modifications: 2'-F pyrimidines; PS between U5 and A6
For the molecule B2, the IC50 with chymase (recombinant) [4] was 12 nM.

B3: SEQ 23 (ssRNA)
RNA: GGGACGGUAGGAAUUCAUAUGUACUCCGUCCUGACAAAAUGUCAAUGACAAACGUUCAUAGAAGAGCGGCCGC
modifications: 2'-F pyrimidines
On to B3, for which the IC50 in the series with chymase (recombinant) [3] amounted to 238 nM.

B4: 56(2) (ssRNA)
RNA: GGGUUAGAUAGAGUUAAAAACCC
modifications: 2'-F pyrimidines; 2'-OMe G1-G3
With B4, the concentration for half-maximal inhibition (IC50) with chymase (recombinant) [4] was 24 nM.

B5: SEQ 24 (ssRNA)
RNA: GGGACGGUAGGAAUUCCCUUCAUAGUAGAAUGUUGGUUUCUACAAAAGCGACAAGCAUAGAAGAGCGGCCGC
modifications: 2'-F pyrimidines
In the case of B5, in the series with chymase (recombinant) [3], the IC50 amounted to 92 nM.

B6: SEQ 9 (ssRNA)
RNA: GGGACGGUAGGAAUUCCCGAAAAGCAACAAGCUUGCUAAAAUGAUUCCGAAAAAACACAUAGAAGAGCGGCCGC
modifications: 2'-F pyrimidines
Regarding B6, the IC50 with chymase (recombinant) [3] came out at 273 nM.

B7: SEQ 17 (ssRNA)
RNA: GGGACGGUAGGAAUUCCGUUCGCAGAAACGAACUUUUAAAAAAUGUACGUGGGAGCACAUAGAAGAGCGGCCGC
modifications: 2'-F pyrimidines
As for B7, the IC50 with chymase (recombinant) [3] stood at 92 nM.

B8: SEQ 5 (ssRNA)
RNA: GGGACGGUAGGAAUUCCCACUUGUCUUUGAGGCAAGAAAUUGUAUUCCGAAGAAGCAUAGAAGAGCGGCCGC
modifications: 2'-F pyrimidines
Take B8: in the series with chymase (recombinant) [3], the 50% inhibitory concentration (IC50) was found to be 80 nM.

B9: SEQ 12 (ssRNA)
RNA: GGGACGGUAGGAAUUCGCCGUCAACGUUACAUAAUGUAUAUACCAGGGUAACUAAACAUAGAAGAGCGGCCGC
modifications: 2'-F pyrimidines
Take B9: in the series with chymase (recombinant) [3], the IC50 was found to be 128 nM.

B10: SEQ 15 (ssRNA)
RNA: GGGACGGUAGGAAUUCCCAGAAAAUAAAUUCCGAAGAAAACAACAAUUUUUGCAAACAUAGAAGAGCGGCCGC
modifications: 2'-F pyrimidines
As for B10, in the series with chymase (recombinant) [3], the half-maximal inhibitory concentration (IC50) was 285 nM.

B11: 56(19) (ssRNA)
RNA: GGGUUAGAUAGAGUUAAAAACCC
modifications: 2'-F pyrimidines; PS between A6 and G7
With B11, in the series with chymase (recombinant) [4], the concentration for half-maximal inhibition (IC50) was found to be 8 nM.

B12: SEQ 19 (ssRNA)
RNA: GGGACGGUAGGAAUUCCCACUGCAAUUCAGCAGAAAAAAUUCCGAAAAACACACACCAUAGAAGAGCGGCCGC
modifications: 2'-F pyrimidines
Regarding B12, the IC50 with chymase (recombinant) [3] is 163 nM.

B13: 56(1) (ssRNA)
RNA: GGGUUAGAUAGAGUUAAAAACCC
modifications: 2'-F pyrimidines; 5' and 3' idT
In the case of B13, in the series with chymase (recombinant) [4], the half-maximal inhibitory concentration (IC50) stood at 26 nM.

B14: SEQ 6 (ssRNA)
RNA: GGGACGGUAGGAAUUCUACGGUCUGUGUGAAAUUGAAACACACAAAGAACAAUAGACAUAGAAGAGCGGCCGC
modifications: 2'-F pyrimidines
In the case of B14, the 50% inhibitory concentration (IC50) with chymase (recombinant) [3] was 456 nM.

B15: SEQ 8 (ssRNA)
RNA: B14 RNA with G55A
modifications: 2'-F pyrimidines
As for B15, in the series with chymase (recombinant) [3], the IC50 is 453 nM.

B16: SEQ 25 (ssRNA)
RNA: GGGACGGUAGGAAUUCAGCUGACUCCAAUGCACACGUAGAUAGAGUUAAAACGUUGCAUAGAAGAGCGGCCGC
modifications: 2'-F pyrimidines
On to B16, for which, in the series with chymase (recombinant) [3], the IC50 was 79 nM.

B17: SEQ 30 (ssRNA)
RNA: GGGACGGUAGGAAUUCGUCCCUCUUGUCUAUUUUGCAGAUAGACUUAAAGCAAACAUAGAAGAGCGGCCGC
modifications: 2'-F pyrimidines
Turning to B17, the 50% inhibitory concentration (IC50) in the series with chymase (recombinant) [3] stood at 147 nM.

B18: SEQ 14 (ssRNA)
RNA: GGGACGGUAGGAAUUCUCGUUCCUGACAGCAUUUGAGAUAGAUUUAAACAAACGCACAUAGAAGAGCGGCCGC
modifications: 2'-F pyrimidines
As to B18, the IC50 with chymase (recombinant) [3] turned out to be 61 nM.

B19: SEQ 26 (ssRNA)
RNA: GGGACGGUAGGAAUUCGUCGAUUCUACAGAUAGAGAUAAAGUAGAAUUUAACAAAACAUAGAAGAGCGGCCGC
modifications: 2'-F pyrimidines
For B19, in the series with chymase (recombinant) [3], the IC50 was determined as 106 nM.

B20: SEQ 11 (ssRNA)
RNA: GGGACGGUAGGAAUUCCCGACACGAAAUGUGUGAUUAAUUCCGAACAACAAAGUAACAUAGAAGAGCGGCCGC
modifications: 2'-F pyrimidines
Take B20: the IC50 with chymase (recombinant) [3] was 145 nM.

By IC50 is commonly meant the concentration that gives 50% inhibition.
